From patent US20080255035A1, “SPARC AND METHODS OF USE THEREOF” (Abraxis BioScience, Inc., priority 2007, published 2008)

How the values were obtained:
[1] = test system: HT29 colon cancer xenograft; assay: s.c. human HT29 colon cancer xenograft model, 5-FU with BIO1; format: in vivo, nude mice
Description: To further explore the chemotherapy sensitizing activity of SPARC, the athymic mouse tumor xenograft system was used to assess the sensitization of HT 29 human colocancer cells to 5-flurouracil (“5-FU”).
The cancer cells were implanted subcutaneously bilaterally in athymic mice. The mice were treated with saline or 25 mg/kg of 5-FU (see Table 4). Those animals that received SPARC were treated with wild type polypeptide (SEQ ID NO:1) at a dose of 4 mg/kg, 6 mg/kg or 8 mg/kg (see Table 4). The animals were monitored for survival and xenograft growth as measures of efficacy and body weight change as a measure of toxicity.

HUVEC [2] = assay: Transport of paclitaxel across EC monolayers on transwell (HUVEC); format: cell-based, human; details: cell type not specified
Description: A series of experiments were performed to evaluate binding and transport of paclitaxel by human umbilical vein endothelial cells (HUVEC) and human lung microvessel endothelial cells (HLMVEC) for ABX and TAX. Fluorescent paclitaxel (FP) was used as a probe and fluorescent ABX and TAX were formulated with FP to probe the binding and transport of paclitaxel across EC monolayers grown on a transwell apparatus.

[3] = test system: Breast Cancer (MDA-MB-231); assay: Breast cancer xenograft, SPARC / Avastin / Abraxane; format: in vivo, athymic nude mice; details: for tumor growth, addition to Abraxane compared to the other arms: breast cancer cells
Description: (§1) Human breast cancer (FIGS. 7 and 8) and colon cancer cells (FIGS. 9 and 10) were grown in athymic nude mice as xenografts as in EXAMPLES 12 and 13. There were 5 mice in each treatment group. Tumors were treated when they reached 200 mm^3. […] Both wild type (“BIO1”) and Q3 mutant SPARC (“BIO2”) were evaluated. The animals were monitored for survival and xenograft growth as measures of efficacy and body weight change as a measure of toxicity.

Colon Cancer (HT29) = assay: Colon cancer xenograft, SPARC / Avastin / Abraxane; format: in vivo, athymic nude mice; details: for tumor growth, single agent therapy versus saline control / tumor growth, addition to Abraxane compared to Abraxane alone: colon cancer cells
Description: as §1

HUVEC [4] = assay: In vitro angiogenesis assay (TSC CellWorks Angiokit); format: cell-based, human; details: 12 days in culture
Description: In this system, human umbilical vein endothelial cells (“HUVEC”) are co-cultured with other human cells (fibroblast) in collagen matrix. HUVEC cells initially form small islands within the culture matrix. HUVEC differentiate, proliferate and enter migratory phase during which they move through the matrix and form threadlike tubule structures (9-11 days). These gradually join up and form a network which resemble the capillary bed.
HUVEC cells grown in a three dimensional matrix were treated with various concentration of wild type SPARC polypeptide (SEQ ID NO: 1) or the Q3 mutant SPARC polypeptide (SEQ ID NO: 3). Capillary microtubules were visualized using immunostaining for CD31 after 12 days in culture. FIG. 6 depicts SPARC's concentration dependent effect on neoangiogensis showing characteristic examples of the capillary microtubular density in the absence of SPARC (0 μg/ml), wild type or Q3 SPARC at 10 μg/ml, and wild type or Q3 SPARC at 100 μg/ml.

O=c1[nH]cc(F)c(=O)[nH]1 [5-FU, 5-flurouracil]
% BWLmax ([1]; 5-FU 25 mg/kg IP): −5.8% | TGI (%) ([1]; 5-FU 25 mg/kg IP, post-treatment day 25): 79.8%

CCN1C(=O)C=CC1=O [NEM]
effect on transport of paclitaxel from ABX across endothelial monolayers (HUVEC [2]): inhibited

Avastin: angiogenesis inhibitor [reference compound]
Tumor growth inhibition (TGI) relative to Abraxane alone ([3]; MDA-MB-231, SPARC 150 μg/kg 2×/week, Avastin 4 mg/kg twice per week, Abraxane 15 mg/kg every fourth day ×3): 16% | Tumor growth inhibition (TGI) relative to Abraxane alone (Colon Cancer (HT29); HT29, SPARC 150 μg/kg 2×/week, Avastin 4 mg/kg twice per week, Abraxane 15 mg/kg every fourth day ×3): <0% | tumor growth, single agent therapy versus saline control (Colon Cancer (HT29)): no better than the saline control treatments

beta-methyl cyclodextrin [BMC]
effect on transport of paclitaxel from ABX across endothelial monolayers (HUVEC [2]): inhibited

B1: BIO1: wild type SPARC polypeptide (SEQ ID NO: 1) (protein, listed as Homo sapiens)
chain: APQQEALPDETEVVEETVAEVTEVSVGANPVQVEVGEFDDGAEETEEEVVAENPCQNHHCKHGKVCELDENNTPMCVCQDPTSCPAPIGEFEKVCSNDNKTFDSSCHFFATKCTLEGTKKGHKLHLDYIGPCKYIPPCLDSELTEFPLRMRDWLKNVLVTLYERDEDNNLLTEKQKLRVKKIHENEKRLEAGDHPVELLARDFEKNYNMYIFPVHWQFGQLDQHPIDGYLSHTELAPLRAPLIPMEHCTTRFFETCDLDNDKYIALDEWAGCFGIKQKDIDKDLVI
sensitization of the cancer cells to 5-FU ([1]; any of the SPARC concentrations used (4, 6, 8 mg/kg)): failed to sensitize

B2: SPARC: Secreted Protein, Acidic, Rich in Cysteines, also known as osteonectin; wild type or Q3 not told apart at the place (protein)
chain: APQQEALPDETEVVEETVAEVTEVSVGANPVQVEVGEFDDGAEETEEEVVAENPCQNHHCKHGKVCELDENNTPMCVCQDPTSCPAPIGEFEKVCSNDNKTFDSSCHFFATKCTLEGTKKGHKLHLDYIGPCKYIPPCLDSELTEFPLRMRDWLKNVLVTLYERDEDNNLLTEKQKLRVKKIHENEKRLEAGDHPVELLARDFEKNYNMYIFPVHWQFGQLDQHPIDGYLSHTELAPLRAPLIPMEHCTTRFFETCDLDNDKYIALDEWAGCFGIKQKDIDKDLVI
angiogenic activity (capillary microtubule density, CD31) (HUVEC [4]; 10 μg/ml): proangiogenic | angiogenic activity (capillary microtubule density, CD31) (HUVEC [4]; 100 μg/ml): inhibits angiogenesis | tumor growth, addition to Abraxane compared to the other arms [3]: marked decreases in tumor growth | tumor growth, addition to Abraxane compared to Abraxane alone (Colon Cancer (HT29)): further decreases in tumor growth | tumor growth, single agent therapy versus saline control (Colon Cancer (HT29)): no better than the saline control treatments

B3: BIO2: Q3 mutant SPARC (SEQ ID NO: 3), deletion of the third glutamine in mature human SPARC (protein, listed as Homo sapiens)
chain: APQEALPDETEVVEETVAEVTEVSVGANPVQVEVGEFDDGAEETEEEVVAENPCQNHHCKHGKVCELDENNTPMCVCQDPTSCPAPIGEFEKVCSNDNKTFDSSCHFFATKCTLEGTKKGHKLHLDYIGPCKYIPPCLDSELTEFPLRMRDWLKNVLVTLYERDEDNNLLTEKQKLRVKKIHENEKRLEAGDHPVELLARDFEKNYNMYIFPVHWQFGQLDQHPIDGYLSHTELAPLRAPLIPMEHCTTRFFETCDLDNDKYIALDEWAGCFGIKQKDIDKDLVI
tumor growth, addition to Abraxane compared to the other arms [3]: similar, though blunted, results | tumor growth, addition to Abraxane compared to Abraxane alone (Colon Cancer (HT29)): fails to slow tumor growth beyond that achieved with Abraxane®
